This note sets out measurements from patent publication US20150064174A1 (BRIGHAM AND WOMEN S HOSPITAL, published 2015).

The assay concerns the target T1, Epstein-Barr virus (EBV)-encoded glycoprotein 350 (gp350) (Epstein-Barr virus, UniProt P03200 1-860).
T1 construct: also called EBV gp350; column-purified EBV gp350 protein
T1 sequence: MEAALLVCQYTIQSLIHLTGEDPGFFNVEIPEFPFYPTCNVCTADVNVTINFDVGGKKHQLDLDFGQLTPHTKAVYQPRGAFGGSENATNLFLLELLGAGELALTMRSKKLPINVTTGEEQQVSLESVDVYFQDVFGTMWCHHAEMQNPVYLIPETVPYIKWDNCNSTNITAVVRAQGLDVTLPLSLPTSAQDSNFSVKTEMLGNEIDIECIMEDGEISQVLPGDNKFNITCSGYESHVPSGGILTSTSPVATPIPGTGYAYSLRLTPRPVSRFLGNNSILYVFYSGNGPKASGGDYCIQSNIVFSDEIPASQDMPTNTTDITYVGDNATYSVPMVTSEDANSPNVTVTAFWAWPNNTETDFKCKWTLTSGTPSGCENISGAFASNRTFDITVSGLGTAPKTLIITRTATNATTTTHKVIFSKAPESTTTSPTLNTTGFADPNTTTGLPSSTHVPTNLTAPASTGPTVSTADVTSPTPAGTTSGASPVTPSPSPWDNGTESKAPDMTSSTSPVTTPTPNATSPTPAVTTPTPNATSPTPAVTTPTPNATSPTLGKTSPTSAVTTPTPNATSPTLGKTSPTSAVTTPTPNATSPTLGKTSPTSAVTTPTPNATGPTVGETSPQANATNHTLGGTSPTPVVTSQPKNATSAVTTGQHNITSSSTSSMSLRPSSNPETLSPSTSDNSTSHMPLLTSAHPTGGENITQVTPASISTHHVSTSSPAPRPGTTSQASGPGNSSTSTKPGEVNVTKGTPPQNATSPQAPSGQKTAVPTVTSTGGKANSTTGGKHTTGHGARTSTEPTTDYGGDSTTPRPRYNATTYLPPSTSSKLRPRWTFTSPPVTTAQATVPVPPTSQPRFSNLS
The experiment in a line: ELISA, plate-coated purified gp350, HEK293T supernatant, anti-human IgG-HRP. For orientation: In an ELISA, binding on a coated surface is turned into a signal by an enzyme label.

B1: recombinant humanized (chimeric) 72A1 antibody, heavy chain 2 and lambda light chain (Vh2+L) (antibody, V domains shown)
VH: DVQLVESGGGLVQPGGSRKLSCAASGFTFSSFGMHWVRQAPEKGLEWVAYISSGSSTLHYADTVKGRFTISRDNPKNTLFLQMTSLRSEDTAMYYCARWGNYPHYAMDYWGQGTSVTVSS
VL: QAVLTQESALTTSPGETVTLTCRSSTGAVTTSNYANWVQEKPDHLFTGLIGGTNNRVPGVPARFSGSLIGDKAALTITGAQTEDEAIYFCVLWHSNHWVFGGGTKLTVL
notes: Murine variable regions on human IgG1 (pCIRN) and human IgK (pEIG) constant regions; HEK293T supernatant
In the case of B1, the binding result is listed as “no binding (tested: supernatant diluted 1:2)”.
